According to patent publication US20260242735A1:

Target: human CD33 H310A (human) (UniProt P20138)
Assay: flow cytometry, HEK293-T, alanine scan

Chain of human CD33 H310A (human) (P20138 18-364 H310A limits assumed): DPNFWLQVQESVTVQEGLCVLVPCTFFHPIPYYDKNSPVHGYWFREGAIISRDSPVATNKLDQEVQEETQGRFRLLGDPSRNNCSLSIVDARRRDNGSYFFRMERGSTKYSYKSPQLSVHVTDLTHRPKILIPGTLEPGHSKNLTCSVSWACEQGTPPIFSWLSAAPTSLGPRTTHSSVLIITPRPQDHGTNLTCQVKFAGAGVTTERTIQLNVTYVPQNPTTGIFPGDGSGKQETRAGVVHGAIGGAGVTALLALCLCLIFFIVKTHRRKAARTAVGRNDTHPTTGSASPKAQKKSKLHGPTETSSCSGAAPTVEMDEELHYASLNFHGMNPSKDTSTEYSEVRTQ

Refmab #7 (WM53) (antibody)
Mean % WT Binding: 90.4 % WT binding
